Assay results taken from patent US20040038338A1, “Influence of LRP cytoplasmic domain on Abeta production” (priority 2001, published 2004).
Entries after “also recorded” stand apart in the source; their conditions may differ.

Tests used:
[1] = tested on: APPs; assay: APPs in medium by immunoprecipitation-western blotting, LRP−/− fibroblasts expressing LRP-CT constructs; format: cell-based, mouse; settings: construct expressed in LRP−/− fibroblasts expressing APP751; compared to LRP± control cells
Procedure: (§1) Mouse fibroblasts deficient in LRP (LRP−/−; PEA 13) and corresponding LRP expressing control cells (LRP±; PEA 10) were obtained from American Type Culture Collection (Rockville, Md., USA) and cultured as described previously (Kang et al., 2000). LRP deficient CHO cell line (13-5-1), CHO cell line expressing a LRP trafficking mutant (14-2-1), and corresponding CHO K1 control cells (kind gift of Dr. S. Leppla) were grown in alpha DMEM supplemented with 10% fetal bovine serum (FitzGerald et al., 1995). Human APP695 and APP751 were inserted into the pBabepuro retroviral expression vector (Morgenstern and Land, 1990) and transferred into GP+E86 packaging cell line. Stable transformants were selected with puromycin (5 μg/ml). After infection with recombinant viruses, mouse fibroblasts were selected with puromycin (2.5 μg/ml)and analyzed after clonal selection for equal APP expression. […] After infection with recombinant viruses, LRP−/− mouse fibroblasts were selected with hygromycin (2.5 μg/ml) and analyzed (LRP−/−CT). […]
(§2) For detection of intracellular proteins, cell extracts were prepared using an NP40 lysis buffer. […] Western blotting was carried out with the indicated antibodies and detected by enhanced chemiluminescence (Pierce). Quantitation of the chemiluminescence signal was carried out with a CCD camera imaging system (GeneGnome, Syngene, Frederick, Md.).

[2] = tested on: Aβ secretion; assay: Aβ secretion, transient expression of LRP-CT in N2A mouse neuroblastoma cells; format: cell-based
[3] = tested on: APP-CTF; assay: APP-CTF levels by immunoblotting (CT15) after expression of LRP-CT constructs in LRP−/− fibroblasts; format: cell-based, mouse; settings: construct expressed in LRP−/− fibroblasts expressing APP751; compared to LRP± control cells
Procedure: as §1, §2

[4] = tested on: Aβ; assay: Aβ ELISA of medium from LRP−/− fibroblasts expressing LRP-CT; format: cell-based, mouse; settings: LRP-CT expressed in LRP−/− cells transfected with APP751; 72 hour collection; compared to LRP± cells
Procedure: Media from LRP−/−, LRP± LRP−/−CT fibroblasts was collected after an incubation period of 72 hours in serum free IS-CHO medium. Debris was removed by centrifugation (13,000 rpm for 20 min) and the supernatants were subjected to Aβ40 quantification using a standard sandwich ELISA described previously (Kang et al., 2000).

[5] = tested on: APP processing; assay: Restoration of APP processing in LRP deficient cells (summary statements); format: cell-based; settings: construct expressed in LRP deficient cells
[6] = target: T1, APP (Homo sapiens, UniProt P05067); assay: APP and LRP co-immunoprecipitation; format: binding; settings: transfected cells
T1 construct: expressed in transfected cells

[7] = tested on: APP processing in CHO 13-5-1 cells; assay: Transient expression of LRP-CT constructs in LRP deficient CHO 13-5-1 cells, APP-CTF and APPs by immunoblotting; format: cell-based; settings: LRP−/− CHO 13-5-1 cells; compared to control levels
Procedure: as §1, §2

[8] = tested on: Aβ secretion; assay: Aβ secretion, transient expression of LRP-CT in human glioma cells; format: cell-based
[9] = tested on: cell surface APP; assay: Cell surface APP by iodinated 1G7 antibody at 4° C.; format: cell-based, mouse; settings: LRP-CT expressed in LRP−/− cells expressing APP751
Procedure: To measure APP surface expression or internalization of surface APP, iodinated 1G7 monoclonal antibody was added to the cells in triplicate exactly as described previously (Koo et al., 1996). For the measurement of cell surface APP, the iodinated antibody was added to APP transfected LRP± and LRP−/− fibroblasts at 4° C. for 30 min followed by extensive washes. Specific binding was calculated after subtraction of the radioactivity obtained from parallel cultures of untransfected LRP± and LRP−/− fibroblasts, respectively. The radioactivity was then normalized to the rate of production of APP, which was determined in parallel cultures. The latter cells were metabolically labeled as described before and immunoprecipitated with polyclonal APP antibody to the C-terminus (CT15). Immunoprecipitates were subjected to SDS-PAGE, gels were dried and the APP signal was quantified by phosphor imaging.

[10] = tested on: APP internalization; assay: Internalization of cell surface APP by iodinated 1G7 antibody at 37° C.; format: cell-based, mouse; settings: LRP-CT expressed in APP751 expressing LRP−/− cells; 30 min at 37° C.; compared to LRP± cells
Procedure: To measure internalization of cell surface APP, iodinated 1G7 antibody was added to confluent cultures of LRP±, LRP−/−, or LRP−/−CT fibroblasts stably transfected with APP695 or APP751 at 37° C. for 30 min. After incubation, cells were rapidly chilled on ice, and the reaction was quenched by the addition of ice-cold binding medium. Chilled cells were extensively washed and remaining surface antibody was detached by two acid washes. The cells were then lysed and collected for analysis. Acid-labile and acid-resistant radioactivity represents the surface and internalized pools of APP, respectively. Specific binding was determined after subtraction of the radioactive counts obtained from parallel cultures of untransfected LRP± and LRP−/− fibroblasts. The ratio of acid-resistant to acid-labile counts therefore provided a measure of the internalized versus cell surface pools of APP. All experiments in this study were repeated one to three times. […]
RESULTS: An APP internalization assay was performed in LRP-deficient cells expressing either APP695 or APP751 using a protocol established in Inventors' laboratory in which iodinated APP monoclonal antibody (1G7) was added to cultured cells at 37° C. for 30 minutes [Koo E H and Squazzo S L. J. Biol. Chem. 269:17386-17389, 1994]. Internalized and cell surface APP can be rapidly determined by the acid resistant and acid labile pools, respectively. […]

[11] = tested on: Aβ secretion; assay: Aβ secretion from APP751-expressing CHO cells transfected with LRP-CT; format: cell-based; settings: LRP-CT overexpressed in APP751-expressing CHO cells (LRP +/+)

B1: LRP-CT: last 370 amino acids of the LRP β-subunit, transmembrane domain and entire cytoplasmic region, with signal peptide (protein)
chain: KRLDNGTCVPVPSPTPPPDAPRPGTCNLQCFNGGSCFLNARRQPKCRCQPRYTGDKCELDQCWEHCRNGGTCAASPSGMPTCRCPTGFTGPKCTQQVCAGYCANNSTCTVNQGNQPQCRCLPGFLGDRCQYRQCSGYCENFGTCQMAADGSRQCRCTAYFEGSRCEVNKCSRCLEGACVVNKQSGDVTCNCTDGRVAPSCLTCVGHCSNGGSCTMNSKMMPECQCPPHMTGPRCEEHVFSQQQPGHIASILIPLLLLLLLVLVAGVVFWYKRRVQGAKGFQHQRMTNGAMNVEIGNPTYKMYEGGEPDDVGGLLDADFALDPDKPTNFTNPVYATLYMGGHGSRHSLASTDEKRELLGRGPEDEIGDPLA
- levels of APPs in medium (APPs secretion) [1]: restored the levels of APPs back to the levels seen in APP751 overexpressing cells; also recorded: restored to control levels; also recorded: restores the abnormal levels of APPs; also recorded: restored to normal levels; also recorded: can be restored
- Aβ secretion [2]: likewise reduced Aβ secretion
- levels of APP-CTF [3]: restored to levels similar to LRP± cells; also recorded: restored to control levels; also recorded: can be restored; also recorded: restored to the level seen in LRP± cells
- Aβ level in medium [4]: restored to control level present in LRP± control cells; also recorded: restored the Aβ levels back to control conditions; also recorded: can be restored
- APP processing steps altered in the absence of LRP [5]: can be restored; also recorded: partial to full restoration
- co-immunoprecipitation with APP [6]: can not only co-IP APP with LRP, but also with LRP-CT; also recorded: APP complexes with LRP-CT
- deficiencies in APP processing [7]: able to restore the deficiencies in APP processing in LRP−/− CHO 13-5-1 cells to control levels
- Aβ secretion [8]: likewise reduced Aβ secretion
- amount of cell surface APP [9]: did not alter the amount of cell surface APP
- APP internalization from the cell surface [10]: largely restored to control level; also recorded: restored to almost control levels; also recorded: can be restored; also recorded: similarly restored; also recorded: partially restored
- Aβ secretion [11]: inhibited Aβ secretion; also recorded: dramatically inhibited; also recorded: reduce Aβ secretion in proportion to level of expression
